Experimental findings from the nanobody polyreactivity screen of Harvey et al. (2022) are described below.

The nature of this data set: yeast display, Sf9 membrane polyspecificity reagent, FACS + sequencing; frameworks hold sequencing errors. The method, boiled down: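 Nanobodies came from a synthetic yeast display library in Saccharomyces cerevisiae BJ5465, induced with galactose for 36–48 hours and stained for 1 hour at 4 °C with 10% biotinylated, detergent-solubilized Sf9 membrane reagent. Cells were enriched on streptavidin microbeads and then FACS-sorted, with low and high (top ~1%) gates set on anti-HA fluorescence for expression and streptavidin fluorescence for reagent binding. Each polyreactivity label reflects the gate a clone came from. Genes were amplified by colony PCR, sequenced by MiSeq 2 × 250 and filtered by CDR length.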
With “QVQLVESGGGLVQAGGSLRLSCAASGRTFDYNAMGWYRQAPGKERELVAAISSSGGSTYYADSVKGRFTISRDNAKNTVYLQMNSLKPEDTAVYYCDKRRNLWGYEYDSWGQGTQVTVSS”, the “polyreactivity (PSR sort gate)” value was “high polyreactivity”.

On to “QVQLVESGGGLVQAGGSLRLSCAASGSIFPSYAMGWYRQAPGKERELVAAISVSGGSTYYADSVKGRFTISRDNAKNTVYLQMNSLKPEDTAVYYCAAQHGYPRYYYWGQGTQVTVSS”, for which the “polyreactivity (PSR sort gate)” value is on record as “high polyreactivity”. The result for “QVQLVESGGGLVQAGGSLRLSCAASGRTFWFYTMGWYRQAPGKERELVAAISSGGSTNYADSVKGRFTISRDNAKNTVYLQMNSLKPEDTAVYYCNARFPVGPSEDAVWYYPKYDYWGQGTQVTVSS” reads “low polyreactivity”; that for “QVQLVESGGGLVQAGGSLRLSCAASGFTFYNNAMGWYRQAPGKERELVAVITSNGGRTYYADSVKGRFTISRDNAKNTVYLQMNSLKPEDTAVYYCAKDYKALYLYHYRISGGDVDYWGQGTQVTVSS”, “low polyreactivity”. The result for “QVQLVESGGGLVQAGGSLRLSCAASGIFWANGMGWYRQAPGKEREWVAAITSGGSTNYADSVKGRFTISRDNAKNTVYLQMNSLKPEDTAVYYCNKPWYSYRYGGVGYGYWGQGTQVTVSS” reads “low polyreactivity”.

On to “QVQLVESGGGLVQAGGSLRLSCAASGRIFYANAMGWYRQAPGKERELVASISARGGSTYYADSVKGRFTISRDNAKNTVYLQMNSLKPEDTAVYYCAKRDTFKPYASLYDYWGQGTQVTVSS”, for which the “polyreactivity (PSR sort gate)” value was “high polyreactivity”. The result for “QVQLVESGGGLVQAGGSLLLSCAASGRIFAYYAMGWYRQAPGKERELVAGISQRGSRTYYADSVKGRFTISRDNAKNTVYLQMNSLKPEDTAVYYCAARDRRSVTMDYWGQGTQVTVSS” reads “high polyreactivity”. For the sequence “QVQLVESGGGLVQAGGTLRLSCAASGGIFLYYAMGWYRQAPGKERELVATISSGGSTKYADSVKGRFTISRDNAMNTVYLQMNSLKPEDTAVYYCNKVFPNLYIYVVRGLIEMDYWGQGTQVTVSS”, the “polyreactivity (PSR sort gate)” value is listed as “low polyreactivity”.

On to “QVQLVESGGGFVQAGGSLRLSCASSGRIFRGYTMGWYRQAPGKEREFVAAIRRSGGTTYYADSVKRRFTISRDNAKNTVYLQMNSLKPEDTAVYYCAAGYPGFTYQRRKYDYWGQGTQVTVSS”, for which the “polyreactivity (PSR sort gate)” value is recorded as “high polyreactivity”. The result for “QVQLVESGGGLVQAGGSLRLSCAASGRTFSRNAMGWYRQAPGKERELVATISRGGGITFYADSVKGRFTISRDNAKNTVYLQMNSLKPEDTAVYYCNADVRYVGLRRIVDYWGQGTQVTVSS” reads “high polyreactivity”. The result for “QVQLVQSVGGLVQAGGSLRLSCAASGSIFIWNAMGWYRQAPGKVRELVAAISFTGTSTYYADSVTGRFTISRDNAKNTVYLEMNSLKPEDNAVYYCNNDYRGSQYDYWGQGTQVTVSS” reads “low polyreactivity”; that for “QVQLVESGGVLVQAGGSLRLSSAAYGFIFAKYAMVWYIQAHGKERELVAGISESCGSTYYADSVKGRFTISRDNAKNTVYLQLNSLKPEDTAVYYCNADDTVYFIKAGDYWGQGTQGTVSS”, “high polyreactivity”. Turning to “QVQLVESGGGLFQAGGSLRLSCAASGRTFDDYAMGWYRQAPGKERELVAGITDNGGGTNYADSVKGRFTISRDNAKNTVYLQMNSLKQEDTAVYYCAAGETFEMYYWGQVTQVTVSS”, the “polyreactivity (PSR sort gate)” value is given as “low polyreactivity”.

Take “QVQLVESGGGLVQAGGSLRLSCAASGRIFRDNAMGWYRQAPGKERELVAAISRRGGSTYYADSVKGRFTISRDNAKNTVYLQMNSLKPEDTAVYYCNKTTQSRTFRYDYWGQGTQVTVSS”: the “polyreactivity (PSR sort gate)” value is reported as “low polyreactivity”. The result for “QVQLVESGGGLVQAGGSLRLSCAASGSIFYDNAMGWYRQAPGKERELVATIRGGGNTYYADSVKGRFTISRDNAKNTVYLQMNSLKPEDTAVYYCAKQSDFPGVPLVYGVYGYDYWGQGTQVTVSS” reads “low polyreactivity”; that for “QVQLVESGGGLVQAGGSLRLSCAASGLTFGGYVMGWYRQAPGKERELVAAISGSGGRTYYADSVKGRFTISRDNAKNTVYLQRNSLKPEDTAVYDCARPPRGPPRGYYWGQGTQVTVSS”, “high polyreactivity”. Then “QVQLVESGGGLVQAGGSLRLSCAASGRIFVDNAMGWYRQAPGKERELVATITSTGSTNYADSVKGRFTISRDNAKNTVYLQMNSLKPEDTAVYYCADGYYPYWGQGTQVTVSS”, with “low polyreactivity”; and “QDQLVESAGGLVQAGGSLRLSCAATASTFHLYAMGWYRQAAGKERELVASIRWSGGSTYYADSVKGRFTISRDNAKNTVYLQMNSLKPEDTAVYYCASEAVPYWSWGRPMYYWGQGTQVTVSS”, with “high polyreactivity”. The result for “QVQLVESGGGLVQAGGSLRLSCAASGSIFGRNAMGWYRQAPGKERELVADIWNGGSTYYADSVKGRFTISRDNAKNTVYLQMNCLKPEDTAVYYCNADANDDGRFGGYIKYDYWGQGTQVTVSS” reads “low polyreactivity”. With “QVQLVESGGGLVQAGGSLRLSCAASGSTSNIYGMGWYRQAPGKERELVAGISRRGSSTYYADSVKGRFTISRDNAKNSVYLHMNSLKPEDTAVYYCNTRSGGYKHRYDYWGQGTQVTVSS”, the “polyreactivity (PSR sort gate)” value was “high polyreactivity”.

Take “QVQLVESGGGLVQAGGSLRISCAASGRTFSRYAMGWYRQAPGKERELVAAITRGGGGTYYADSVKGRFTISRDNAKNTVYLQMNSLKPEDTAVYYCNRVLLPGPQYQWGKAYDYWGQGTQVTVSS”: the “polyreactivity (PSR sort gate)” value is on record as “high polyreactivity”. “QVQLVESGGGLVQAGVSLRLSCAASGRIFIVYAMGWYRQAPGKERELVAAISWRGGNTYYADSVKARFTISRDNAKNTVYLQMNSLKPEDTAVYYCAARQYGTAAFDYWGQGTQVTVSS”: the “polyreactivity (PSR sort gate)” value was “high polyreactivity”. Then “QVQLVESGGGLVQAGGSLRLSCAASGRIFTSNVMGWYRQAPGKERELVAAISWTGGNTYYADSVKGRFTISRDKAKNSVYLQMNSLKPEDTAVYYCAVTYWSAVFIPNKYDYWGQGTQVTVSS”, with “low polyreactivity”; and “QVQLVESGGGLVQAGGSLRLRCAASGIIFRGYAMGWYRPAPGKERELVAGITSGGDTNYADSVKGRFTISRDNAKNTVYVQMNSMNPEDTEGYYCATSDRRYRGRHYPFYKFDYWGQGPQVTVSS”, with “low polyreactivity”. The result for “QVQLVESGGGLVQAGGSLRLSCADSGRTFWSNSMGWYRQAPGKERELVARIDSTYYADSVKGRFTISRDNAKNTVYLQMNSLKPEDTAFYYCNADTIYYAGDFRYDYWGQGTQVTVSS” reads “low polyreactivity”.

In the case of “QVQLVESGGGLVQAGGSLRLSCAASGINFFGKYAMGWYRQAPGKERELVAAISWSGGRTYYADSVKWRFTISRDNAKNTVYLQMNSLKPEDTAVYYCAVYPRDAERYGYCGQGTQVTVSS”, the “polyreactivity (PSR sort gate)” value is recorded as “high polyreactivity”. The result for “QVQLVESGGGLVQAGGSLRLSCAASGRIFGLYARGWSRQAPGKERELVAAYADSVKGRFTISRENAKNTVYLQMNSLKPEDTAVYYCAKGPLYAGYSIDLRDFNYWGQGTQVTVSS” reads “low polyreactivity”; that for “QLQLVESGGGLVLAGGSLRLSCAASGYLFQRTAKGCYRQATGKVRELVSTISRGGARTSYAYSVKGRFTISSDNANNTVYLQMNSLKPEDTAVYYCAKSYRKAGGMWSYGYWGQGTQVTVSS”, “high polyreactivity”.

“QVQLVESGGGLVQAGGSLRLSCAASGSIFGSYAIGWYRHAPGKERELVAAIRYNSGSTYYADSVKGRFTISRDNAKNTVYLQMNSLKPEDTAVYYCAAYLLWGFDYWVQGTQVTVSS”: the “polyreactivity (PSR sort gate)” value is “high polyreactivity”. The result for “QVQLVESGGGLVQAGGSLRLSCAASGSIFNSYAMGWSRQAPGKERELVAAISSGGGRTYYADSVKGRFTISRDNAKNTVYLQMNSLKPEDTAVYYCNARAVYRFDYWGQGTQVTVSS” reads “high polyreactivity”. With “QVPLVESGGGVVQAGGSLRLSCAASGRTYRWNVMGWYRQAPGKERELVATISRRSGSTNYADSVKGRFTISRDNAKNTVYLQINSLKPEDTAVYYCNTDTYFPLYDYWGQGTQVTVSS”, the “polyreactivity (PSR sort gate)” value is “low polyreactivity”.

Regarding “QVQLVESGGGLVQAGGILRLSCPASGRTFVNYAMGWYRQQPGKESELVAAITSRGGSTYYADSVKGRFTISRDNAKNSVFLQMNSLKPEDTAFYYCAAGEYYYWGQGTQVTVSS”, the “polyreactivity (PSR sort gate)” value is given as “high polyreactivity”.

As for “QVQLVESGGGLVQAGRILRISCAASGFKYAMGWYRQEPGKERELVAAISSGGITSYADSVKGRFTISRDNAKNTVYLQMNSLKPEDTAVYYCAAALRRRRAYFDYWGQGTQVTVSS”, the “polyreactivity (PSR sort gate)” value is reported as “high polyreactivity”. Then “QVQLVESGGGLVQAGGSLRLSCAASGVTFYHNAMGSYRQAPGKERELVAAISSSGDSTYYADSVKGRFTISRDNAKNTVYLHMNSLKPEDTAVYYCNDYFYYLSLYYYYWFNYDYWGQGTQVTVSS”, with “low polyreactivity”; and “QVQLVESGGGLVQAGGSLRLSCAASGSIFWTYAMGWSRQAPGKERELVATITYSDGNTYYADSVKGRFTISRDNAKNTVYFQMNSLKPEDTAVYYCNADGIYATISGYRYDYWGQGTQVTVSS”, with “low polyreactivity”. Then “QVQLVESGGGLVQAGGSLRLSCAASGITFYEYAMGCYRQAPGKERELVATITSGGNTNYADSVKGRFTISRDNAKNTVYLQMNSLKPEDTAVYYCNKEWDGDGYTDDCDYDYWGQGTQVTVSS”, with “low polyreactivity”; and “QVQLVESGGGLVQAGGSLRLSCAASGSILTDNAMRWYRQAPGKERELVAAITSGGYTYYADSVKGRFTISRDNAKNTVYLHMNILKPEDTAVYYCNADPYTYSYGMYYWGQGTQVTVSS”, with “low polyreactivity”; and “QVQLVESGGGLVQAGGSLRLSCAASGSIFVTYAMGWYRQAPGKERELVAAINYSGGSTYYADSVKGRFTISRDNAKNTVYLQMNSLKPEDTAVYYCAADERVDQGWIRMDYWGQGTQVTVSS”, with “low polyreactivity”. Consider “QVQLVESGGGLVQAGGSLRLSCAASGFTFTLNAMGWYRQAPGKASEFVAAISTGGSTYYADSVKGRFTISRHNAKNTVYLQMNSRKPEDTAVYYCAAYRYSYHGSYQETYYYWGQGTQVTVSS”, for which the “polyreactivity (PSR sort gate)” value is reported as “high polyreactivity”.

Consider “QVQHVESGGGLVQAGGSLRLSCPASGLTVGGYAMGWYRQAPGKERELVAAISLSGGRTYYADSVKGRFTISRDIPMITVYLLMNSLKPEVSAVYYCAASILVVYLREDYWGQGTQVTVSS”, for which the “polyreactivity (PSR sort gate)” value was “high polyreactivity”. Then “QVQLVESGGGLVQAGGSLRLSCAASGLISTYYVMGWYRQAPGQERELVAAIRASDASTYYADSVKGRFTISRDNAKNPVYLQMHSLKPEDTAVYYCAAETGFYSRFAFHRYNYWGQGTQVTVSS”, with “low polyreactivity”.
